The assay deals with recombinant human core Mitotic Checkpoint Complex (untagged CDC20, SBP-BUBR1, His6-MAD2) (human, UniProt Q12834;O60566;Q13257). Put plainly: pull-down.

The source of these data is article PMC4312099 (Nature, 2014).

recombinant human core Mitotic Checkpoint Complex (untagged CDC20, SBP-BUBR1, His6-MAD2), sequence (O60566 whole entry, chain 2 of 2): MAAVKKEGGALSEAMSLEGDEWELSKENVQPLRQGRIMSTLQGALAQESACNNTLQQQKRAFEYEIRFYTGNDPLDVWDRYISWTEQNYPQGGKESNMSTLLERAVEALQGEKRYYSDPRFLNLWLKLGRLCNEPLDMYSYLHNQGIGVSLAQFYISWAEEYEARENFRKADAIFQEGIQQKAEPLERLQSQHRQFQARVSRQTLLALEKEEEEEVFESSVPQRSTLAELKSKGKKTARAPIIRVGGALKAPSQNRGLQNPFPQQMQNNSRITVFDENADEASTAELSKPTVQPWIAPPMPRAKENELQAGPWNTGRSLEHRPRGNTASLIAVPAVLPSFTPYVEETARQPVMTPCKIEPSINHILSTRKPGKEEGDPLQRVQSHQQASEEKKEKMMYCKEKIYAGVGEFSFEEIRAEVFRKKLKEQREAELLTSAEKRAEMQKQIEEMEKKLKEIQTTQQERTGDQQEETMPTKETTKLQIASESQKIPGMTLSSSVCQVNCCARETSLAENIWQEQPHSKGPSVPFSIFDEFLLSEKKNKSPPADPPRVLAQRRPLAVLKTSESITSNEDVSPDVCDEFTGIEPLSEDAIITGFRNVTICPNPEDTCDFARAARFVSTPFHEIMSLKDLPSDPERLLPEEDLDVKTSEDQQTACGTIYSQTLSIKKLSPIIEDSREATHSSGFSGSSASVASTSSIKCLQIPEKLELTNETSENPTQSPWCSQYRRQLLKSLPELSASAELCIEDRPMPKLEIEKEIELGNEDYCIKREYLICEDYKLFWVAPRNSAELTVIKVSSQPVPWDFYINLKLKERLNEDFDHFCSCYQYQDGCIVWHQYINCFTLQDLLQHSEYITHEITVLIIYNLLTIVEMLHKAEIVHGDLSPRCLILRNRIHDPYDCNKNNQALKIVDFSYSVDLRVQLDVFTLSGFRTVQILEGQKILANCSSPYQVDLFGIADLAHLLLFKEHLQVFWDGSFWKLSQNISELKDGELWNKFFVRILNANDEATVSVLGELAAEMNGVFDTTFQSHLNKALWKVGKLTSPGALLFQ
recombinant human core Mitotic Checkpoint Complex (untagged CDC20, SBP-BUBR1, His6-MAD2), sequence (Q13257 whole entry, chain 3 of 2): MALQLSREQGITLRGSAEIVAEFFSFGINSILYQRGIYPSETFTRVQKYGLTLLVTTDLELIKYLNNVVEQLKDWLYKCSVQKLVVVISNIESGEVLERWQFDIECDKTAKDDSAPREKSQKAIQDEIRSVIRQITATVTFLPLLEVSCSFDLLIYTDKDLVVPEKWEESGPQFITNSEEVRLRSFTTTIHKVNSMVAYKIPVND

B1: recombinant His6-tagged CDC20 ΔKILR (K129ILR/AAAA) mutant (natural protein)
chain: MAQFAFESDLHSLLQLDAPIPNAPPARWQRKAKEAAGPAPSPMRAANRSHSAGRTPGRTPGKSSSKVQTTPSKPGGDRYIPHRSAAQMEVASFLLSKENQPENSQTPTKKEHQKAWALNLNGFDVEEAAAAALSGKPQNAPEGYQNRLKVLYSQKATPGSSRKTCRYIPSLPDRILDAPEIRNDYYLNLVDWSSGNVLAVALDNSVYLWSASSGDILQLLQMEQPGEYISSVAWIKEGNYLAVGTSSAEVQLWDVQQQKRLRNMTSHSARVGSLSWNSYILSSGSRSGHIHHHDVRVAEHHVATLSGHSQEVCGLRWAPDGRHLASGGNDNLVNVWPSAPGEGGWVPLQTFTQHQGAVKAVAWCPWQSNVLATGGGTSDRHIRIWNVCSGACLSAVDAHSQVCSILWSPHYKELISGHGFAQNQLVIWKYPTMAKVAELKGHTSRVLSLTMSPDGATVASAAADETLRLWRCFELDPARRREREKASAAKSSLIHQGIR
On to B1, for which the binding result is “binds”.
